Eight substances from paper PMC7801473 (2021) can be followed below.

Test [1] addresses ASC^CARD (self-interaction; state of second copy not shown). The test is described as follows: M2H (mammalian two-hybrid, luciferase). The note with it: HEK293T cells; luciferase normalized to Renilla; parent: est. 4.2; read off a plot.
For test [2], the target named is NLRP1^CARD (human) (UniProt Q9C000). The test is described as follows: SEC-MALS; Superdex 200 10/30, 500 mM NaCl, 20 mM CHES-HCl pH 9.0, 500 uL at 0.5 mg/mL, 0.5 mL/min; monomer to dimer. (In general: SEC sorts molecules by how far they enter the pores of the column.)
For test [3], the target named is MBP-ASC^CARD (human) (UniProt Q9ULZ3). The test is described as follows: SEC; His-tagged MBP-ASC^CARD incubated with a threefold concentration of untagged NLRP1^CARD for 4 h, first purified by Ni-affinity chromatography, then Superdex gel filtration; complex in the void (~9 mL); also run at 0.15, 0.5 and 1.0 M NaCl (complex decreased with salt); ratio from gray scales of the PAGE gel.
Chain of MBP-ASC^CARD (human) (Q9ULZ3 95-195): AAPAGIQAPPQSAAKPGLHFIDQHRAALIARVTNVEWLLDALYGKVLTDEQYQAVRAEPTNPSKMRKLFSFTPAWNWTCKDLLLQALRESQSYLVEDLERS

Turning to “ASC^CARD (M2H fusion) (from UniProt Q9ULZ3-1) D134K”, in test [1], the response (fold of negative control) was found to be 1.4.
For “ASC^CARD (M2H fusion) (from UniProt Q9ULZ3-1) D143A; E144A”, the response (fold of negative control) in test [1] turned out to be 1.2.
With “ASC^CARD (M2H fusion) (from UniProt Q9ULZ3-1) N128A; E130R”, in test [1], the response (fold of negative control) stood at 1.2.
On to “ASC^CARD (M2H fusion) (from UniProt Q9ULZ3-1) R119D”, for which the response (fold of negative control) in test [1] turned out to be 1.3.
Consider “ASC^CARD (M2H fusion) (from UniProt Q9ULZ3-1) R125A; T127A”, for which, in test [1], the response (fold of negative control) was found to be 1.2.
Regarding “ASC^CARD (M2H fusion) (from UniProt Q9ULZ3-1) R160E”, the response (fold of negative control) in test [1] stood at 1.2.
As to “ASC^CARD (M2H fusion) (from UniProt Q9ULZ3-1) W169G; N170A”, the response (fold of negative control) in test [1] amounted to 1.2.
Consider “NLRP1^CARD (from UniProt Q9C000-1 1397-1462) (domain or fragment)”, for which, in test [2], the stoichiometry N (commonly the number of molecules, sites or subunits per partner or assembly) is 2. Also, the stoichiometry N (NLRP1^CARD : ASC^CARD) in test [3] stood at 0.5.
